The assay has as its target T1, RIFIN PF3D7_1400600 (Plasmodium falciparum).
T1 construct: A-type RIFIN; on transfected CHO cells, and native from 3D7-MGD21^+ IEs in the immunoprecipitation
T1 chain: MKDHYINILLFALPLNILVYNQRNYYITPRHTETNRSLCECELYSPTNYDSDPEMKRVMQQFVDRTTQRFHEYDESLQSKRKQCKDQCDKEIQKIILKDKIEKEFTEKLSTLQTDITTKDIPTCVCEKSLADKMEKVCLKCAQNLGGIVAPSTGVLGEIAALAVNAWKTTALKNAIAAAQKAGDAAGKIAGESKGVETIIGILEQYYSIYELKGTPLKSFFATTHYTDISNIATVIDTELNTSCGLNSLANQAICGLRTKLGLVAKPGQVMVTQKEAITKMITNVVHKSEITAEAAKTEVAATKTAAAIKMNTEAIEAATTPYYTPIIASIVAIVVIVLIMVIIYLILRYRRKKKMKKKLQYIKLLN
Put plainly: immunoprecipitation and LC-MS.

B1: MGD21 (antibody)
VH: EVQLVETGPGLMKTSGTLSLTCAVSGDYVNTNRRWSWVRQAPGKGLEWIGEVHQSGRTNYNPSLKSRVTISVDKSKNQFSLKVDSVTAADTAVYYCARASPLKSQRDTDLPRPSISAEPGTVIPLGSHVTFVCRGPVGVQTFRLERERNYLYSDTEDVSQTSPSESEARFRIDSVNAGNAGLFRCIYYKSRKWSEQSDYLELVVKGEDVTWALSQSQDDPRACPQGELPISTDIYYVDVWGNGTTVTVSS
VL: AIRMTQSPSSLSASPGDKVSITCRASQHINDSLAWFQQRPGKAPKLLIYGASNLHSGVPSRFSGTGSGTDFTLTITGLQSEDFATYFCQQCNCFPPDFGQGTRLEIK
notes: Donor D; LAIR-1 insert in CDRH3; variable regions only; also called MGD21 ANTIBODY; mAb MGD21
Consider B1, for which the “log2 fold change (MGD21 immunoprecipitates of 3D7-MGD21^+ against 3D7-MGD21^- IEs)” value turned out to be 2 log2 fold.
